Our source for the Top values is patent US20250066499A1 (SUNSHINE GUOJIAN PHARMACEUTICAL SHANGHAI, published 2025).

Common to all, as to assay: ELISA, high plateau value (OD 450 nm)
One test addresses T1, CD73-ND-Y132A (human, UniProt P21589 27-317).
T1 construct: Alanine mutant of CD73-ND
T1 sequence: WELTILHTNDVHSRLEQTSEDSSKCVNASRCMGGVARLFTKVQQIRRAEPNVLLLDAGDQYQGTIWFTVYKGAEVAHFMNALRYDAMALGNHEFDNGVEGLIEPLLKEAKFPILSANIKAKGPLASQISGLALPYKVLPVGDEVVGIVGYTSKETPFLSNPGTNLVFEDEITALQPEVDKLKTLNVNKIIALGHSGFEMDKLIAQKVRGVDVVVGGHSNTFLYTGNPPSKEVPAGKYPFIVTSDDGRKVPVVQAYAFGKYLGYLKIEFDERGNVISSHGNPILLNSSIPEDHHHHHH
The protocol:
(§1) The ELISA plates were coated with SA protein diluted to 1.5 μg/mL in coating buffer (50 mM carbonate coating buffer, pH 9.6) and incubated overnight at 4° C. The supernatant was discarded, and the plates were washed three times with PBST. Then, 5% skimmed milk powder prepared with PBS was added for blocking and the plates were incubated for 2 h at 37° C. After washing the plates once with PBST, CD73-biotin protein (prepared by biotinylating CD73-His protein according to the EZ-Link NHS-Biotin Reagent instructions) was diluted to 0.5 μg/mL and added at 100 μL/well for incubation at room temperature for 1 h. The plates were washed three times with PBST, and the prepared murine-derived monoclonal antibodies against human CD73 were serially diluted with 1% BSA buffer prepared with PBST and added to the ELISA plates at 100 μl/well. The plates were incubated at 37° C. for 1 h. After washing the plates three times with PBST, HRP-labeled goat anti-mouse IgG secondary antibody was added and the plates were incubated for 30 min at 37° C. After washing the plates three times with PBST, the residual droplets were patted dry on absorbent paper as much as possible. Then, 100 μl of TMB color developing solution was added to each well, and the plates were incubated in the dark at room temperature for 5 min for color development. Subsequently, 50 μl of 2M H₂SO₄ stop solution was added to each well to terminate the substrate reaction. The OD values were read at 450 nm using a multimode microplate reader to analyze the binding ability of the tested antibodies to the target antigen human CD73-His.
(§2) Referring to the experimental method in Example 3, the affinity of 48A11-HuV33 for various mutant proteins of CD73-ND was determined. The SA protein was diluted to 1 μg/mL for coating the ELISA plates, and the biotinylated CD73 protein (CD73-biotin) was used at a concentration of 0.1 μg/mL.

In another test the target is T2, CD73-ND-K136A (human, UniProt P21589 27-317).
T2 construct: Alanine mutant of CD73-ND
T2 sequence: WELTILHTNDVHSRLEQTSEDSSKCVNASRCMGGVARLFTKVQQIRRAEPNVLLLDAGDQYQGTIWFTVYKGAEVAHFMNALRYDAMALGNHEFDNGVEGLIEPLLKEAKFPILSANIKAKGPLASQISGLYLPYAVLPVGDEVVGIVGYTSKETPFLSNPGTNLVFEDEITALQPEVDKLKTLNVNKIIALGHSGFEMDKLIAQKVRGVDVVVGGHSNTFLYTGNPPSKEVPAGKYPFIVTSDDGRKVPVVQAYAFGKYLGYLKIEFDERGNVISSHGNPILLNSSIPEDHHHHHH
How it is done: as §1, §2

The target of the next test is T3, CD73-ND-L138A (human, UniProt P21589 27-317).
T3 construct: Alanine mutant of CD73-ND
T3 sequence: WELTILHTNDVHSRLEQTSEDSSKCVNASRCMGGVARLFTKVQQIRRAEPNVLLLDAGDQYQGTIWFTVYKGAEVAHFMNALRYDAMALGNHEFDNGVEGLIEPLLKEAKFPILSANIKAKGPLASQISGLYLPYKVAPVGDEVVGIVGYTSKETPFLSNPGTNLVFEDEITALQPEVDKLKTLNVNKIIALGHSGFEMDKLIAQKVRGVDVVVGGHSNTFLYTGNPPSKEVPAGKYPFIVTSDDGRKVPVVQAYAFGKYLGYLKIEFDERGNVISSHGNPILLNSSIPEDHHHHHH
How it is done:
as §1, §2

The target in the next test is T4, CD73-ND-his (human, UniProt P21589 27-317).
T4 construct: Biotinylated and captured on streptavidin in the ELISA
T4 sequence: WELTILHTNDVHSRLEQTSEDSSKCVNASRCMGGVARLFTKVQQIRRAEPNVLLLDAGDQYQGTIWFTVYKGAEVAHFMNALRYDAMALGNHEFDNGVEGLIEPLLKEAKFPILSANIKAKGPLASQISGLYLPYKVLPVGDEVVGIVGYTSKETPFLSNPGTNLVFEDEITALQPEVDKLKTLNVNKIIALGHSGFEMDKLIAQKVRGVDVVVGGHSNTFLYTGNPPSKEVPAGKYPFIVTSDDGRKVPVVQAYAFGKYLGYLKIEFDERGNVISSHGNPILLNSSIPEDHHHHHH
The protocol:
as §1, §2

Another test has as its target T5, CD73-ND-V137A (human, UniProt P21589 27-317).
T5 construct: Alanine mutant of CD73-ND
T5 sequence: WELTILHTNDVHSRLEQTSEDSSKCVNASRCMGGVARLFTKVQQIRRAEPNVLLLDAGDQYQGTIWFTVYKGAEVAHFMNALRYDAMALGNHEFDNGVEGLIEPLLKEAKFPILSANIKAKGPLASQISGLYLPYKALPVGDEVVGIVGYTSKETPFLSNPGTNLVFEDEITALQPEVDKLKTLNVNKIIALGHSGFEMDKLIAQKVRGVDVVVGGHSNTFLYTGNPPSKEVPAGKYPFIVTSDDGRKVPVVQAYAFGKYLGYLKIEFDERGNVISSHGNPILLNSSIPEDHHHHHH
How it is done:
as §1, §2

The target in a further test is T6, CD73-ND-P134A (human, UniProt P21589 27-317).
T6 construct: Alanine mutant of CD73-ND
T6 sequence: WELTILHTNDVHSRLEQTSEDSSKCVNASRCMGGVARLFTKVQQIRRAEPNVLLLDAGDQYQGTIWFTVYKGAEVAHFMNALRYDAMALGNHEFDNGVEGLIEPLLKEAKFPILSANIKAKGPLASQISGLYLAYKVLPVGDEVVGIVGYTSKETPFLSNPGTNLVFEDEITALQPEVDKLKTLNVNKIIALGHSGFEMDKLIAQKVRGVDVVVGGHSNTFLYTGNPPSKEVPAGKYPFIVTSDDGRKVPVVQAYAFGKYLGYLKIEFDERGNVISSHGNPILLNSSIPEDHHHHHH
How it is done: as §1, §2

B1: 48A11-HuV33 (antibody, human IgG4, V domains shown)
VH: QVQLVQSGAEVKKPGASVKVSCKASGYTFTSYWMHWVRQAPGQGLEWIGEINPSIGRTNYNEKFKSRVTLTRDTSTSTAYMELSSLRSEDTAVYYCARRVYGTMDYWGQGTLVTVSS
VL: DIQMTQSPSSLSASVGDRVTITCKASQDINSYLSWFQQKPGKSPKLLIYRANIWVDGVPSRFSGSGSGQDYTFTISSLQPEDIATYYCLQYDELYTFGQGTKVEIK
notes: Humanized
Take B1: the Top in the test with CD73-ND-Y132A stood at 0.254; with CD73-ND-K136A it was 2.12; in the test with CD73-ND-L138A it was 1.91; in the test with CD73-ND-his, 2.08; with CD73-ND-V137A, 1.6; with CD73-ND-P134A, 1.97.
